Starred links: 1 amine or outer side, 2 acyl side, 3 side chain; linkers in the order of their positions; H or OH if unused. Positions of bridges follow the written chain, without caps; N, C: chain ends. *: point of attachment. C20 diacid = O=C(O)CCCCCCCCCCCCCCCCCCC(=O)*; γGlu = O=C(O)[C@H](CCC(=O)[*:2])N[*:1]
T1: human amylin 3(a) receptor (human calcitonin receptor + RAMP-3) (human, UniProt P30988 25-474; O60896 24-148)
T1 sequence (looked up) 1: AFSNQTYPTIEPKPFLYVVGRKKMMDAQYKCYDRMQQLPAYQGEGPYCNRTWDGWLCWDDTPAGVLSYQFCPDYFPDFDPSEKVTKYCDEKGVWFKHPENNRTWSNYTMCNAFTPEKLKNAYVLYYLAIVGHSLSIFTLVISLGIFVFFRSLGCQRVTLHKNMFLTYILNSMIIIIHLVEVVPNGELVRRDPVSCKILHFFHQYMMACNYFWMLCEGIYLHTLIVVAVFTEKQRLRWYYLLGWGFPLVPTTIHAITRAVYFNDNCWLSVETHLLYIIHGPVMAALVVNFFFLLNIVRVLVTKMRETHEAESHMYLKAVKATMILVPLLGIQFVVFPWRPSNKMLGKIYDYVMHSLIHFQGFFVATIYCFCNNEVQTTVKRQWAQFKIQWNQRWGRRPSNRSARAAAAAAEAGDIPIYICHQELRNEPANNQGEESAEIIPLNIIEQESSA
T1 sequence (looked up) 2: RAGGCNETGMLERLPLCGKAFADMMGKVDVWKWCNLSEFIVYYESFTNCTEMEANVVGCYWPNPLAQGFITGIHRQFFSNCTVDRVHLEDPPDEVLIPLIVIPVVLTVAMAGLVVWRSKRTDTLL

T2: human calcitonin (a) receptor (human, UniProt P30988 25-474)
T2 sequence (looked up): T1 sequence (looked up) 1

B1: N-alpha-[(S)-4-Carboxy-4-(19-carboxynonadecanoylamino)butyryl]-Glu-Glu-[Arg1,Glu14,Arg17,Gln21,Gln35,Pro37]-pramlintide (peptide)
peptide: {C20 diacid-γGlu}-EERCNTATCATQRLAEFLRHSSQNFGPILPPTNVGSQTP-NH2
modifications: disulfide 4-9
SMILES: CC[C@H](C)[C@H](NC(=O)[C@@H]1CCCN1C(=O)CNC(=O)[C@H](Cc1ccccc1)NC(=O)[C@H](CC(N)=O)NC(=O)[C@H](CCC(N)=O)NC(=O)[C@H](CO)NC(=O)[C@H](CO)NC(=O)[C@H](Cc1c[nH]cn1)NC(=O)[C@H](CCCNC(=N)N)NC(=O)[C@H](CC(C)C)NC(=O)[C@H](Cc1ccccc1)NC(=O)[C@H](CCC(=O)O)NC(=O)[C@H](C)NC(=O)[C@H](CC(C)C)NC(=O)[C@H](CCCNC(=N)N)NC(=O)[C@H](CCC(N)=O)NC(=O)[C@@H](NC(=O)[C@H](C)NC(=O)[C@@H]1CSSC[C@H](NC(=O)[C@H](CCCNC(=N)N)NC(=O)[C@H](CCC(=O)O)NC(=O)[C@H](CCC(=O)O)NC(=O)CC[C@H](NC(=O)CCCCCCCCCCCCCCCCCCC(=O)O)C(=O)O)C(=O)N[C@@H](CC(N)=O)C(=O)N[C@@H]([C@@H](C)O)C(=O)N[C@@H](C)C(=O)N[C@@H]([C@@H](C)O)C(=O)N1)[C@@H](C)O)C(=O)N[C@@H](CC(C)C)C(=O)N1CCC[C@H]1C(=O)N1CCC[C@H]1C(=O)N[C@H](C(=O)N[C@@H](CC(N)=O)C(=O)N[C@H](C(=O)NCC(=O)N[C@@H](CO)C(=O)N[C@@H](CCC(N)=O)C(=O)N[C@H](C(=O)N1CCC[C@H]1C(N)=O)[C@@H](C)O)C(C)C)[C@@H](C)O
B2: N-alpha-[(S)-4-Carboxy-4-(19-carboxynonadecanoylamino)butyryl]-Glu-[Arg1,Glu14,Arg17,Pro37]-pramlintide (peptide)
peptide: {C20 diacid-γGlu}-ERCNTATCATQRLAEFLRHSSNNFGPILPPTNVGSNTP-NH2
modifications: disulfide 3-8
SMILES: CC[C@H](C)[C@H](NC(=O)[C@@H]1CCCN1C(=O)CNC(=O)[C@H](Cc1ccccc1)NC(=O)[C@H](CC(N)=O)NC(=O)[C@H](CC(N)=O)NC(=O)[C@H](CO)NC(=O)[C@H](CO)NC(=O)[C@H](Cc1c[nH]cn1)NC(=O)[C@H](CCCNC(=N)N)NC(=O)[C@H](CC(C)C)NC(=O)[C@H](Cc1ccccc1)NC(=O)[C@H](CCC(=O)O)NC(=O)[C@H](C)NC(=O)[C@H](CC(C)C)NC(=O)[C@H](CCCNC(=N)N)NC(=O)[C@H](CCC(N)=O)NC(=O)[C@@H](NC(=O)[C@H](C)NC(=O)[C@@H]1CSSC[C@H](NC(=O)[C@H](CCCNC(=N)N)NC(=O)[C@H](CCC(=O)O)NC(=O)CC[C@H](NC(=O)CCCCCCCCCCCCCCCCCCC(=O)O)C(=O)O)C(=O)N[C@@H](CC(N)=O)C(=O)N[C@@H]([C@@H](C)O)C(=O)N[C@@H](C)C(=O)N[C@@H]([C@@H](C)O)C(=O)N1)[C@@H](C)O)C(=O)N[C@@H](CC(C)C)C(=O)N1CCC[C@H]1C(=O)N1CCC[C@H]1C(=O)N[C@H](C(=O)N[C@@H](CC(N)=O)C(=O)N[C@H](C(=O)NCC(=O)N[C@@H](CO)C(=O)N[C@@H](CC(N)=O)C(=O)N[C@H](C(=O)N1CCC[C@H]1C(N)=O)[C@@H](C)O)C(C)C)[C@@H](C)O
B3: N-alpha-[(S)-4-Carboxy-4-(19-carboxynonadecanoylamino)butyryl]-Glu-Arg-[Glu1,Glu14,Arg17,Gln21,Pro37]-pramlintide (peptide)
peptide: {C20 diacid-γGlu}-ERECNTATCATQRLAEFLRHSSQNFGPILPPTNVGSNTP-NH2
modifications: disulfide 4-9
SMILES: CC[C@H](C)[C@H](NC(=O)[C@@H]1CCCN1C(=O)CNC(=O)[C@H](Cc1ccccc1)NC(=O)[C@H](CC(N)=O)NC(=O)[C@H](CCC(N)=O)NC(=O)[C@H](CO)NC(=O)[C@H](CO)NC(=O)[C@H](Cc1c[nH]cn1)NC(=O)[C@H](CCCNC(=N)N)NC(=O)[C@H](CC(C)C)NC(=O)[C@H](Cc1ccccc1)NC(=O)[C@H](CCC(=O)O)NC(=O)[C@H](C)NC(=O)[C@H](CC(C)C)NC(=O)[C@H](CCCNC(=N)N)NC(=O)[C@H](CCC(N)=O)NC(=O)[C@@H](NC(=O)[C@H](C)NC(=O)[C@@H]1CSSC[C@H](NC(=O)[C@H](CCC(=O)O)NC(=O)[C@H](CCCNC(=N)N)NC(=O)[C@H](CCC(=O)O)NC(=O)CC[C@H](NC(=O)CCCCCCCCCCCCCCCCCCC(=O)O)C(=O)O)C(=O)N[C@@H](CC(N)=O)C(=O)N[C@@H]([C@@H](C)O)C(=O)N[C@@H](C)C(=O)N[C@@H]([C@@H](C)O)C(=O)N1)[C@@H](C)O)C(=O)N[C@@H](CC(C)C)C(=O)N1CCC[C@H]1C(=O)N1CCC[C@H]1C(=O)N[C@H](C(=O)N[C@@H](CC(N)=O)C(=O)N[C@H](C(=O)NCC(=O)N[C@@H](CO)C(=O)N[C@@H](CC(N)=O)C(=O)N[C@H](C(=O)N1CCC[C@H]1C(N)=O)[C@@H](C)O)C(C)C)[C@@H](C)O
B4: N-alpha-[(S)-4-Carboxy-4-(19-carboxynonadecanoylamino)butyryl]-Glu-Glu-[Arg1,Glu14,Arg17,Gln21,Pro37]-pramlintide (peptide)
peptide: {C20 diacid-γGlu}-EERCNTATCATQRLAEFLRHSSQNFGPILPPTNVGSNTP-NH2
modifications: disulfide 4-9
SMILES: CC[C@H](C)[C@H](NC(=O)[C@@H]1CCCN1C(=O)CNC(=O)[C@H](Cc1ccccc1)NC(=O)[C@H](CC(N)=O)NC(=O)[C@H](CCC(N)=O)NC(=O)[C@H](CO)NC(=O)[C@H](CO)NC(=O)[C@H](Cc1c[nH]cn1)NC(=O)[C@H](CCCNC(=N)N)NC(=O)[C@H](CC(C)C)NC(=O)[C@H](Cc1ccccc1)NC(=O)[C@H](CCC(=O)O)NC(=O)[C@H](C)NC(=O)[C@H](CC(C)C)NC(=O)[C@H](CCCNC(=N)N)NC(=O)[C@H](CCC(N)=O)NC(=O)[C@@H](NC(=O)[C@H](C)NC(=O)[C@@H]1CSSC[C@H](NC(=O)[C@H](CCCNC(=N)N)NC(=O)[C@H](CCC(=O)O)NC(=O)[C@H](CCC(=O)O)NC(=O)CC[C@H](NC(=O)CCCCCCCCCCCCCCCCCCC(=O)O)C(=O)O)C(=O)N[C@@H](CC(N)=O)C(=O)N[C@@H]([C@@H](C)O)C(=O)N[C@@H](C)C(=O)N[C@@H]([C@@H](C)O)C(=O)N1)[C@@H](C)O)C(=O)N[C@@H](CC(C)C)C(=O)N1CCC[C@H]1C(=O)N1CCC[C@H]1C(=O)N[C@H](C(=O)N[C@@H](CC(N)=O)C(=O)N[C@H](C(=O)NCC(=O)N[C@@H](CO)C(=O)N[C@@H](CC(N)=O)C(=O)N[C@H](C(=O)N1CCC[C@H]1C(N)=O)[C@@H](C)O)C(C)C)[C@@H](C)O
B5: N-alpha-[(S)-4-Carboxy-4-(19-carboxynonadecanoylamino)butyryl]-Glu-Glu-[Arg1,Glu14,Arg17,Pro37]-pramlintide (peptide)
peptide: {C20 diacid-γGlu}-EERCNTATCATQRLAEFLRHSSNNFGPILPPTNVGSNTP-NH2
modifications: disulfide 4-9
SMILES: CC[C@H](C)[C@H](NC(=O)[C@@H]1CCCN1C(=O)CNC(=O)[C@H](Cc1ccccc1)NC(=O)[C@H](CC(N)=O)NC(=O)[C@H](CC(N)=O)NC(=O)[C@H](CO)NC(=O)[C@H](CO)NC(=O)[C@H](Cc1c[nH]cn1)NC(=O)[C@H](CCCNC(=N)N)NC(=O)[C@H](CC(C)C)NC(=O)[C@H](Cc1ccccc1)NC(=O)[C@H](CCC(=O)O)NC(=O)[C@H](C)NC(=O)[C@H](CC(C)C)NC(=O)[C@H](CCCNC(=N)N)NC(=O)[C@H](CCC(N)=O)NC(=O)[C@@H](NC(=O)[C@H](C)NC(=O)[C@@H]1CSSC[C@H](NC(=O)[C@H](CCCNC(=N)N)NC(=O)[C@H](CCC(=O)O)NC(=O)[C@H](CCC(=O)O)NC(=O)CC[C@H](NC(=O)CCCCCCCCCCCCCCCCCCC(=O)O)C(=O)O)C(=O)N[C@@H](CC(N)=O)C(=O)N[C@@H]([C@@H](C)O)C(=O)N[C@@H](C)C(=O)N[C@@H]([C@@H](C)O)C(=O)N1)[C@@H](C)O)C(=O)N[C@@H](CC(C)C)C(=O)N1CCC[C@H]1C(=O)N1CCC[C@H]1C(=O)N[C@H](C(=O)N[C@@H](CC(N)=O)C(=O)N[C@H](C(=O)NCC(=O)N[C@@H](CO)C(=O)N[C@@H](CC(N)=O)C(=O)N[C@H](C(=O)N1CCC[C@H]1C(N)=O)[C@@H](C)O)C(C)C)[C@@H](C)O
B6: N-alpha-[(S)-4-Carboxy-4-(19-carboxynonadecanoylamino)butyryl]-[Arg17,Pro37]-pramlintide (peptide)
peptide: {C20 diacid-γGlu}-KCNTATCATQRLANFLRHSSNNFGPILPPTNVGSNTP-NH2
modifications: disulfide 2-7
SMILES: CC[C@H](C)[C@H](NC(=O)[C@@H]1CCCN1C(=O)CNC(=O)[C@H](Cc1ccccc1)NC(=O)[C@H](CC(N)=O)NC(=O)[C@H](CC(N)=O)NC(=O)[C@H](CO)NC(=O)[C@H](CO)NC(=O)[C@H](Cc1c[nH]cn1)NC(=O)[C@H](CCCNC(=N)N)NC(=O)[C@H](CC(C)C)NC(=O)[C@H](Cc1ccccc1)NC(=O)[C@H](CC(N)=O)NC(=O)[C@H](C)NC(=O)[C@H](CC(C)C)NC(=O)[C@H](CCCNC(=N)N)NC(=O)[C@H](CCC(N)=O)NC(=O)[C@@H](NC(=O)[C@H](C)NC(=O)[C@@H]1CSSC[C@H](NC(=O)[C@H](CCCCN)NC(=O)CC[C@H](NC(=O)CCCCCCCCCCCCCCCCCCC(=O)O)C(=O)O)C(=O)N[C@@H](CC(N)=O)C(=O)N[C@@H]([C@@H](C)O)C(=O)N[C@@H](C)C(=O)N[C@@H]([C@@H](C)O)C(=O)N1)[C@@H](C)O)C(=O)N[C@@H](CC(C)C)C(=O)N1CCC[C@H]1C(=O)N1CCC[C@H]1C(=O)N[C@H](C(=O)N[C@@H](CC(N)=O)C(=O)N[C@H](C(=O)NCC(=O)N[C@@H](CO)C(=O)N[C@@H](CC(N)=O)C(=O)N[C@H](C(=O)N1CCC[C@H]1C(N)=O)[C@@H](C)O)C(C)C)[C@@H](C)O

Assays:
[1] = molecular target: T1, human amylin 3(a) receptor (human …); assay: cell-based or functional assay
[2] = molecular target: T2, human calcitonin (a) receptor; assay: cell-based or functional assay

| Binder | Amylin receptor human EC50 [1] [nM] | CTa receptor human EC50 [2] [nM] |
| --- | --- | --- |
| B1 | 1.13 | 1.19 |
| B2 | 0.066 | 0.168 |
| B3 | 0.232 | 1.13 |
| B4 | 0.465 | 0.547 |
| B5 | 0.313 | 0.526 |
| B6 | 0.053 | 0.057 |

From patent publication US20130005646A1 (Novo Nordisk, published 2013)
